System: Escherichia coli TOP10
Assay: shrunken log2 fold change of peptide-encoding DNA abundance (4.5 h post-induction vs induction); higher = less antimicrobial activity (less host growth inhibition)
Details: time post-induction: 4.5 h; library: site-saturation at positions 5, 18, 19, 20
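Also: peptides expressed intracellularly from a pBAD plasmid library in pooled LB shake-flask culture, induced with 0.3% L-arabinose, DNA abundance read by NGS, three biological replicates, DESeq2 with apeglm shrinkage.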

RRIRWRPPRLPRPRPRPHLIPRP
shrunken log2 fold change: 0.172

RRIRFRPPRLPRPRPRPHRYPRP
shrunken log2 fold change: -0.402

RRIRTRPPRLPRPRPRPAWLPRP
shrunken log2 fold change: -0.0636

RRIRYRPPRLPRPRPRPWCQPRP
shrunken log2 fold change: -0.243

RRIRGRPPRLPRPRPRPHKLPRP
shrunken log2 fold change: 0.213

RRIRHRPPRLPRPRPRPRNVPRP
shrunken log2 fold change: -0.00885

RRIRHRPPRLPRPRPRPLCQPRP
shrunken log2 fold change: -0.316

RRIRLRPPRLPRPRPRPNDVPRP
shrunken log2 fold change: -0.111

RRIRIRPPRLPRPRPRPLEDPRP
shrunken log2 fold change: -0.0413

RRIRERPPRLPRPRPRPSTNPRP
shrunken log2 fold change: -0.317

RRIRDRPPRLPRPRPRPSSLPRP
shrunken log2 fold change: 0.15

RRIRNRPPRLPRPRPRPRNDPRP
shrunken log2 fold change: -0.304

RRIRSRPPRLPRPRPRPRLTPRP
shrunken log2 fold change: 0.0483

RRIRFRPPRLPRPRPRPNTMPRP
shrunken log2 fold change: -0.648

RRIRVRPPRLPRPRPRPINAPRP
shrunken log2 fold change: -0.174

RRIRPRPPRLPRPRPRPSFIPRP
shrunken log2 fold change: -0.601

RRIRVRPPRLPRPRPRPNTGPRP
shrunken log2 fold change: -0.112

RRIRVRPPRLPRPRPRPTHRPRP
shrunken log2 fold change: 0.662

RRIRPRPPRLPRPRPRPFQYPRP
shrunken log2 fold change: -0.179

RRIRLRPPRLPRPRPRPLTGPRP
shrunken log2 fold change: -0.0782

RRIRMRPPRLPRPRPRPTVMPRP
shrunken log2 fold change: 0.563

RRIRPRPPRLPRPRPRPAERPRP
shrunken log2 fold change: 0.291

RRIRQRPPRLPRPRPRPASNPRP
shrunken log2 fold change: -0.00674

RRIRARPPRLPRPRPRPHSAPRP
shrunken log2 fold change: -0.0202

RRIRKRPPRLPRPRPRPTRDPRP
shrunken log2 fold change: 0.753

RRIRQRPPRLPRPRPRPPYPPRP
shrunken log2 fold change: -0.0407

RRIRGRPPRLPRPRPRPNMWPRP
shrunken log2 fold change: 0.274

RRIRCRPPRLPRPRPRPFQLPRP
shrunken log2 fold change: -1.02

RRIRVRPPRLPRPRPRPGGHPRP
shrunken log2 fold change: 0.13

RRIRQRPPRLPRPRPRPDFVPRP
shrunken log2 fold change: 0.0112

RRIRERPPRLPRPRPRPYKQPRP
shrunken log2 fold change: -0.049

RRIRCRPPRLPRPRPRPVYIPRP
shrunken log2 fold change: -0.756

RRIRKRPPRLPRPRPRPMEDPRP
shrunken log2 fold change: -0.00186

RRIRNRPPRLPRPRPRPGVIPRP
shrunken log2 fold change: 0.208

RRIRRRPPRLPRPRPRPLCVPRP
shrunken log2 fold change: 0.537

RRIRERPPRLPRPRPRPHLLPRP
shrunken log2 fold change: 0.0196

RRIRHRPPRLPRPRPRPTVIPRP
shrunken log2 fold change: 0.0211

RRIRIRPPRLPRPRPRPWCRPRP
shrunken log2 fold change: -0.521

RRIRPRPPRLPRPRPRPNNEPRP
shrunken log2 fold change: -0.504

RRIRPRPPRLPRPRPRPWSAPRP
shrunken log2 fold change: -0.00633

RRIRTRPPRLPRPRPRPMVEPRP
shrunken log2 fold change: 0.0887

RRIRVRPPRLPRPRPRPTATPRP
shrunken log2 fold change: 0.272

RRIRLRPPRLPRPRPRPDCTPRP
shrunken log2 fold change: 0.0972

RRIRNRPPRLPRPRPRPDDTPRP
shrunken log2 fold change: 0.0119

RRIRNRPPRLPRPRPRPSFVPRP
shrunken log2 fold change: -0.266

RRIRNRPPRLPRPRPRPCVDPRP
shrunken log2 fold change: 0.037

RRIRSRPPRLPRPRPRPKIQPRP
shrunken log2 fold change: -0.311

RRIRWRPPRLPRPRPRPQCTPRP
shrunken log2 fold change: 0.11

RRIRRRPPRLPRPRPRPSEPPRP
shrunken log2 fold change: 0.115

RRIRFRPPRLPRPRPRPIAFPRP
shrunken log2 fold change: 0.0375

— the supplement of paper PMC9112550, “Optimization of the antimicrobial peptide Bac7 by deep mutational scanning” (BMC Biology, 2022)
